# Experimental data from patent publication US20260242419A1, “A CYCLIC PEPTIDE FOR TRAPPING INTERLEUKIN-1 BETA” (Merck Sharp & Dohme LLC, priority 2023, published 2026).
# Starred links: 1 amine or outer side, 2 acyl side, 3 side chain; linkers in the order of their positions; H or OH if unused. Non-standard residues stand in square brackets, D forms with d. dProc3Bn4Pyrim2OMe = (2R,3S)-3-[[4-(2-methoxypyrimidin-5-yl)phenyl]methyl]pyrrolidine-2-carboxylic acid, COc1ncc(-c2ccc(C[C@H]3CCN([*:1])[C@H]3C(=O)[*:2])cc2)cn1; dProc3Bn4Im4NMe = (2R,3S)-3-(4-(1-methyl-1H-imidazol-4-yl)benzyl)pyrrolidine-2-carboxylic acid, Cn1cnc(-c2ccc(C[C@H]3CCN([*:1])[C@H]3C(=O)[*:2])cc2)c1; dProc3Bn4Im2NMe = (2R,3S)-3-(4-(1-methyl-1H-imidazol-2-yl)benzyl)pyrrolidine-2-carboxylic acid, Cn1ccnc1-c1ccc(C[C@H]2CCN([*:1])[C@H]2C(=O)[*:2])cc1; dProc3Bn4Iso3Me = (2R,3S)-3-(4-(3-methylisoxazol-4-yl)benzyl)pyrrolidine-2-carboxylic acid, Cc1nocc1-c1ccc(C[C@H]2CCN([*:1])[C@H]2C(=O)[*:2])cc1; dProc3Bn4Pyr2 = (2R,3S)-3-[[4-(2-pyridyl)phenyl]methyl]pyrrolidine-2-carboxylic acid, O=C([C@H]1[C@@H](Cc2ccc(-c3ccccn3)cc2)CCN1[*:1])[*:2]; dProc3CH2Pyrim = (2R,3S)-3-(pyrimidin-5-ylmethyl)pyrrolidine-2-carboxylic acid, O=C([C@H]1[C@@H](Cc2cncnc2)CCN1[*:1])[*:2]; TyrEtNAc = (2S)-3-[4-(2-acetamidoethoxy)phenyl]-2-amino-propanoic acid, CC(=O)NCCOc1ccc(C[C@H](N[*:1])C(=O)[*:2])cc1; Phe(4-(trans-4-COOH-cHex)) = N[C@@H](Cc1ccc([C@H]2CC[C@H](C(=O)O)CC2)cc1)C(=O)O; Phe(4-(cis-4-COOH-cHex)) = N[C@@H](Cc1ccc([C@H]2CC[C@@H](C(=O)O)CC2)cc1)C(=O)O; Trp(βS-Me,4-F) = C[C@@H](c1c[nH]c2cccc(F)c12)[C@H](N)C(=O)O; 3Aminoazetidine3carboxyl = O=C(C1(N[*:1])CN([*:3])C1)[*:2]; Bip(4'-COOH) = N[C@@H](Cc1ccc(-c2ccc(C(=O)O)cc2)cc1)C(=O)O; dPro(4R-Bzl(4-F)) = O=C(O)[C@H]1C[C@@H](Cc2ccc(F)cc2)CN1; Ala(pyrimidin-5-yl) = N[C@@H](Cc1cncnc1)C(=O)O; Phe(4-COOH) = N[C@@H](Cc1ccc(C(=O)O)cc1)C(=O)O; Pro(cis-4-F) = O=C(O)[C@@H]1C[C@H](F)CN1; 4Pal = N[C@@H](Cc1ccncc1)C(=O)O; αMeK = C[C@](N)(CCCCN)C(=O)O; Api = NC1(C(=O)O)CCNCC1; Dab = NCC[C@H](N)C(=O)O; Dap = NC[C@H](N)C(=O)O; Aib = CC(C)(N)C(=O)O
# B1: SEQ ID NO: 63 (peptide)
# peptide: cyclo([Bip(4'-COOH)][4Pal][Phe(4-COOH)]G[Pro(cis-4-F)][Trp(βS-Me,4-F)][Aib]EW[Aib][Ala(pyrimidin-5-yl)]Q[Dab]G[dProc3Bn4Im2NMe])
# SMILES: C[C@@H](c1c[nH]c2cccc(F)c12)[C@@H]1NC(=O)[C@@H]2C[C@H](F)CN2C(=O)CNC(=O)[C@H](Cc2ccc(C(=O)O)cc2)NC(=O)[C@H](Cc2ccncc2)NC(=O)[C@H](Cc2ccc(-c3ccc(C(=O)O)cc3)cc2)NC(=O)[C@H]2[C@@H](Cc3ccc(-c4nccn4C)cc3)CCN2C(=O)CNC(=O)[C@H](CCN)NC(=O)[C@H](CCC(N)=O)NC(=O)[C@H](Cc2cncnc2)NC(=O)C(C)(C)NC(=O)[C@H](Cc2c[nH]c3ccccc23)NC(=O)[C@H](CCC(=O)O)NC(=O)C(C)(C)NC1=O
# B2: SEQ ID NO: 64 (peptide)
# peptide: cyclo([Bip(4'-COOH)][4Pal][Phe(4-COOH)]G[Pro(cis-4-F)][Trp(βS-Me,4-F)][Aib]EW[Aib][Ala(pyrimidin-5-yl)]Q[Dab]G[dProc3Bn4Im4NMe])
# SMILES: C[C@@H](c1c[nH]c2cccc(F)c12)[C@@H]1NC(=O)[C@@H]2C[C@H](F)CN2C(=O)CNC(=O)[C@H](Cc2ccc(C(=O)O)cc2)NC(=O)[C@H](Cc2ccncc2)NC(=O)[C@H](Cc2ccc(-c3ccc(C(=O)O)cc3)cc2)NC(=O)[C@H]2[C@@H](Cc3ccc(-c4cn(C)cn4)cc3)CCN2C(=O)CNC(=O)[C@H](CCN)NC(=O)[C@H](CCC(N)=O)NC(=O)[C@H](Cc2cncnc2)NC(=O)C(C)(C)NC(=O)[C@H](Cc2c[nH]c3ccccc23)NC(=O)[C@H](CCC(=O)O)NC(=O)C(C)(C)NC1=O
# B3: SEQ ID NO: 65 (peptide)
# peptide: cyclo([Bip(4'-COOH)][4Pal][Phe(4-COOH)]G[Pro(cis-4-F)][Trp(βS-Me,4-F)][Aib]EW[Api][Ala(pyrimidin-5-yl)]Q[Dab]G[dPro(4R-Bzl(4-F))])
# SMILES: C[C@@H](c1c[nH]c2cccc(F)c12)[C@@H]1NC(=O)[C@@H]2C[C@H](F)CN2C(=O)CNC(=O)[C@H](Cc2ccc(C(=O)O)cc2)NC(=O)[C@H](Cc2ccncc2)NC(=O)[C@H](Cc2ccc(-c3ccc(C(=O)O)cc3)cc2)NC(=O)[C@H]2C[C@@H](Cc3ccc(F)cc3)CN2C(=O)CNC(=O)[C@H](CCN)NC(=O)[C@H](CCC(N)=O)NC(=O)[C@H](Cc2cncnc2)NC(=O)C2(CCNCC2)NC(=O)[C@H](Cc2c[nH]c3ccccc23)NC(=O)[C@H](CCC(=O)O)NC(=O)C(C)(C)NC1=O
# B4: SEQ ID NO: 60 (peptide)
# peptide: cyclo([Bip(4'-COOH)][4Pal][Phe(4-COOH)]G[Pro(cis-4-F)][Trp(βS-Me,4-F)][Aib]EW[Aib][Ala(pyrimidin-5-yl)]Q[Dab]G[dProc3Bn4Pyrim2OMe])
# SMILES: COc1ncc(-c2ccc(C[C@H]3CCN4C(=O)CNC(=O)[C@H](CCN)NC(=O)[C@H](CCC(N)=O)NC(=O)[C@H](Cc5cncnc5)NC(=O)C(C)(C)NC(=O)[C@H](Cc5c[nH]c6ccccc56)NC(=O)[C@H](CCC(=O)O)NC(=O)C(C)(C)NC(=O)[C@H]([C@@H](C)c5c[nH]c6cccc(F)c56)NC(=O)[C@@H]5C[C@H](F)CN5C(=O)CNC(=O)[C@H](Cc5ccc(C(=O)O)cc5)NC(=O)[C@H](Cc5ccncc5)NC(=O)[C@H](Cc5ccc(-c6ccc(C(=O)O)cc6)cc5)NC(=O)[C@@H]34)cc2)cn1
# B5: SEQ ID NO: 7 (peptide)
# peptide: cyclo([Bip(4'-COOH)][4Pal][Phe(4-COOH)]G[Pro(cis-4-F)][Trp(βS-Me,4-F)][Aib]EW[Aib][Ala(pyrimidin-5-yl)]Q[Dap]G[dPro(4R-Bzl(4-F))])
# SMILES: C[C@@H](c1c[nH]c2cccc(F)c12)[C@@H]1NC(=O)[C@@H]2C[C@H](F)CN2C(=O)CNC(=O)[C@H](Cc2ccc(C(=O)O)cc2)NC(=O)[C@H](Cc2ccncc2)NC(=O)[C@H](Cc2ccc(-c3ccc(C(=O)O)cc3)cc2)NC(=O)[C@H]2C[C@@H](Cc3ccc(F)cc3)CN2C(=O)CNC(=O)[C@H](CN)NC(=O)[C@H](CCC(N)=O)NC(=O)[C@H](Cc2cncnc2)NC(=O)C(C)(C)NC(=O)[C@H](Cc2c[nH]c3ccccc23)NC(=O)[C@H](CCC(=O)O)NC(=O)C(C)(C)NC1=O
# B6: SEQ ID NO: 69 (peptide)
# peptide: cyclo([Phe(4-(cis-4-COOH-cHex))][4Pal][Phe(4-COOH)]G[Pro(cis-4-F)][Trp(βS-Me,4-F)][Aib]EW[3Aminoazetidine3carboxyl][Ala(pyrimidin-5-yl)]Q[Dab]G[dPro(4R-Bzl(4-F))])
# SMILES: C[C@@H](c1c[nH]c2cccc(F)c12)[C@@H]1NC(=O)[C@@H]2C[C@H](F)CN2C(=O)CNC(=O)[C@H](Cc2ccc(C(=O)O)cc2)NC(=O)[C@H](Cc2ccncc2)NC(=O)[C@H](Cc2ccc([C@H]3CC[C@@H](C(=O)O)CC3)cc2)NC(=O)[C@H]2C[C@@H](Cc3ccc(F)cc3)CN2C(=O)CNC(=O)[C@H](CCN)NC(=O)[C@H](CCC(N)=O)NC(=O)[C@H](Cc2cncnc2)NC(=O)C2(CNC2)NC(=O)[C@H](Cc2c[nH]c3ccccc23)NC(=O)[C@H](CCC(=O)O)NC(=O)C(C)(C)NC1=O
# B7: SEQ ID NO: 68 (peptide)
# peptide: cyclo([Phe(4-(trans-4-COOH-cHex))][4Pal][Phe(4-COOH)]G[Pro(cis-4-F)][Trp(βS-Me,4-F)][Aib]EW[3Aminoazetidine3carboxyl][Ala(pyrimidin-5-yl)]Q[Dab]G[dPro(4R-Bzl(4-F))])
# SMILES: C[C@@H](c1c[nH]c2cccc(F)c12)[C@@H]1NC(=O)[C@@H]2C[C@H](F)CN2C(=O)CNC(=O)[C@H](Cc2ccc(C(=O)O)cc2)NC(=O)[C@H](Cc2ccncc2)NC(=O)[C@H](Cc2ccc([C@H]3CC[C@H](C(=O)O)CC3)cc2)NC(=O)[C@H]2C[C@@H](Cc3ccc(F)cc3)CN2C(=O)CNC(=O)[C@H](CCN)NC(=O)[C@H](CCC(N)=O)NC(=O)[C@H](Cc2cncnc2)NC(=O)C2(CNC2)NC(=O)[C@H](Cc2c[nH]c3ccccc23)NC(=O)[C@H](CCC(=O)O)NC(=O)C(C)(C)NC1=O
# B8: SEQ ID NO: 62 (peptide)
# peptide: cyclo([Bip(4'-COOH)][4Pal][Phe(4-COOH)]G[Pro(cis-4-F)][Trp(βS-Me,4-F)][Aib]EW[Aib][Ala(pyrimidin-5-yl)]Q[Dab]G[dProc3Bn4Iso3Me])
# SMILES: Cc1nocc1-c1ccc(C[C@H]2CCN3C(=O)CNC(=O)[C@H](CCN)NC(=O)[C@H](CCC(N)=O)NC(=O)[C@H](Cc4cncnc4)NC(=O)C(C)(C)NC(=O)[C@H](Cc4c[nH]c5ccccc45)NC(=O)[C@H](CCC(=O)O)NC(=O)C(C)(C)NC(=O)[C@H]([C@@H](C)c4c[nH]c5cccc(F)c45)NC(=O)[C@@H]4C[C@H](F)CN4C(=O)CNC(=O)[C@H](Cc4ccc(C(=O)O)cc4)NC(=O)[C@H](Cc4ccncc4)NC(=O)[C@H](Cc4ccc(-c5ccc(C(=O)O)cc5)cc4)NC(=O)[C@@H]23)cc1
# B9: SEQ ID NO: 66 (peptide)
# peptide: cyclo([Bip(4'-COOH)][4Pal][Phe(4-COOH)]G[Pro(cis-4-F)][Trp(βS-Me,4-F)][αMeK]EW[Aib][Ala(pyrimidin-5-yl)]Q[Dab]G[dPro(4R-Bzl(4-F))])
# SMILES: C[C@@H](c1c[nH]c2cccc(F)c12)[C@@H]1NC(=O)[C@@H]2C[C@H](F)CN2C(=O)CNC(=O)[C@H](Cc2ccc(C(=O)O)cc2)NC(=O)[C@H](Cc2ccncc2)NC(=O)[C@H](Cc2ccc(-c3ccc(C(=O)O)cc3)cc2)NC(=O)[C@H]2C[C@@H](Cc3ccc(F)cc3)CN2C(=O)CNC(=O)[C@H](CCN)NC(=O)[C@H](CCC(N)=O)NC(=O)[C@H](Cc2cncnc2)NC(=O)C(C)(C)NC(=O)[C@H](Cc2c[nH]c3ccccc23)NC(=O)[C@H](CCC(=O)O)NC(=O)[C@](C)(CCCCN)NC1=O
# B10: SEQ ID NO: 61 (peptide)
# peptide: cyclo([Bip(4'-COOH)][4Pal][Phe(4-COOH)]G[Pro(cis-4-F)][Trp(βS-Me,4-F)][Aib]EW[Aib][Ala(pyrimidin-5-yl)]Q[Dab]G[dProc3Bn4Pyr2])
# SMILES: C[C@@H](c1c[nH]c2cccc(F)c12)[C@@H]1NC(=O)[C@@H]2C[C@H](F)CN2C(=O)CNC(=O)[C@H](Cc2ccc(C(=O)O)cc2)NC(=O)[C@H](Cc2ccncc2)NC(=O)[C@H](Cc2ccc(-c3ccc(C(=O)O)cc3)cc2)NC(=O)[C@H]2[C@@H](Cc3ccc(-c4ccccn4)cc3)CCN2C(=O)CNC(=O)[C@H](CCN)NC(=O)[C@H](CCC(N)=O)NC(=O)[C@H](Cc2cncnc2)NC(=O)C(C)(C)NC(=O)[C@H](Cc2c[nH]c3ccccc23)NC(=O)[C@H](CCC(=O)O)NC(=O)C(C)(C)NC1=O
# B11: SEQ ID NO: 70 (peptide)
# peptide: cyclo([TyrEtNAc][4Pal][Phe(4-COOH)][Pro(cis-4-F)][Trp(βS-Me,4-F)][Aib]EW[Aib][Ala(pyrimidin-5-yl)]Q[Dab]G[dProc3CH2Pyrim])
# SMILES: CC(=O)NCCOc1ccc(C[C@@H]2NC(=O)[C@H]3[C@@H](Cc4cncnc4)CCN3C(=O)CNC(=O)[C@H](CCN)NC(=O)[C@H](CCC(N)=O)NC(=O)[C@H](Cc3cncnc3)NC(=O)C(C)(C)NC(=O)[C@H](Cc3c[nH]c4ccccc34)NC(=O)[C@H](CCC(=O)O)NC(=O)C(C)(C)NC(=O)[C@H]([C@@H](C)c3c[nH]c4cccc(F)c34)NC(=O)[C@@H]3C[C@H](F)CN3C(=O)[C@H](Cc3ccc(C(=O)O)cc3)NC(=O)[C@H](Cc3ccncc3)NC2=O)cc1
# Molecular target: Recombinant human IL-1β (BioLegend 579404) (human, UniProt P01584 117-269)
# Test: cell-based or functional assay
row,MRC5 IC50 [nM],Binder
1,0.018,B1
2,0.014,B2
3,0.025,B3
4,0.018,B4
5,0.021,"cyclo([Bip(4'-COOH)][4Pal][Phe(4-COOH)]G[Pro(cis-4-F)][Trp(βS-Me,4-F)][Aib]EW[αMeK][Ala(pyrimidin-5-yl)]Q[Dab]G[dPro(4R-Bzl(4-F))]) [SEQ ID NO: 67]"
6,0.026,B5
7,0.03,B6
8,0.029,B7
9,0.021,B8
10,0.028,B9
11,0.022,B10
12,0.081,B11
